Assay results taken from US20180037645A1 (Bristol-Myers Squibb, published 2018).
Substitutions are numbered along the chain they refer to.

B1: IL-23 alanine shave mutant M5 (ligand, human)
chain 1: RAVPGGSSPAWTQCQQLSQKLCTLAWSAHPLVGAADLREEGDEETTNDVPHIQCGDGCDPQGLRDNSQFCLQRIHQGLIFYEKLLGSDIFTGAPSLAPASPVGQLHASLLGLSQLLQPEGHHWETQQIPSLSPSQPWQRLLLRFKILRSLQAFVAVAARVFAHGAATLSP
chain 2: IWELKKDVYVVELDWYPDAPGEMVVLTCDTPEEDGITWTLDQSSEVLGSGKTLTIQVKEFGDAGQYTCHKGGEVLSHSLLLLHKKEDGIWSTDILKDQKEPKNKTFLRCEAKNYSGRFTCWWLTTISTDLTFSVKSSRGSSDPQGVTCGAATLSAERVRGDNKEYEYSVECQEDSACPAAEESLPIEVMVDAVHKLKYENYTSSFFIRDIIKPDPPKNLQLKPLKNSRQVEVSWEYPDTWSTPHSYFSLTFCVQVQGKSKREKKDRVFTDKTSATVICRKNASISVRAQDRYYSSSWSEWASVPCS
B2: IL-23 alanine shave mutant M10 (ligand, human)
chain 1: B1 chain 1 with D36A, A93E, A97L, A99D, F144A
chain 2: B1 chain 2
B3: IL-23 alanine shave mutant M7 (ligand, human)
chain 1: B1 chain 1 with A34H, A35M, A93E, A97L, A99D, W123A, E124A, T125A, Q126A, Q127A
chain 2: B1 chain 2
B4: IL-23 alanine shave mutant M9 (ligand, human)
chain 1: B1 chain 1 with A34H, A35M, A93E, Q104A
chain 2: B1 chain 2

What follows are binders tested against human IL-23Rα / human IL-12Rβ1 on BaF3 transfectants (human, UniProt Q5VWK5 24-629; P42701 24-662) (assay: cell-based or functional assay).
Sequence of human IL-23Rα / human IL-12Rβ1 on BaF3 transfectants (Q5VWK5 24-629, chain 1 of 2, other chains not shown): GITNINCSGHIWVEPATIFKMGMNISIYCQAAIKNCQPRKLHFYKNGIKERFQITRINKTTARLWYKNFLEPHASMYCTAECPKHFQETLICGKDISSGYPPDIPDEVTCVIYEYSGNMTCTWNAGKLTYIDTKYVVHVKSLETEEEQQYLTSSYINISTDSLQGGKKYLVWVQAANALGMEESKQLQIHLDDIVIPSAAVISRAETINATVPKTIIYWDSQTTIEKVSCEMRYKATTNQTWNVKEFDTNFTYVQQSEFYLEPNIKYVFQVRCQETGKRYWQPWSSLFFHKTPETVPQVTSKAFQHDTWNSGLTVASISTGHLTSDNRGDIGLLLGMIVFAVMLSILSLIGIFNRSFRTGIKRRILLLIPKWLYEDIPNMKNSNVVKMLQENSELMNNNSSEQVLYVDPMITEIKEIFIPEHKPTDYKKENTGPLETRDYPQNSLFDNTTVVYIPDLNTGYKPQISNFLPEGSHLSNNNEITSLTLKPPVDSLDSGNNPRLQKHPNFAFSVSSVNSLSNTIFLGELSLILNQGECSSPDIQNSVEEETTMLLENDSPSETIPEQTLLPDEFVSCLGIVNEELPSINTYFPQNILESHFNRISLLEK

Row | EC50, pSTAT3 in BaF3/huIL-23Rα/huIL-12Rβ1 transfectants [pM] | Binder
1 | 26 | B1
2 | 19 | B2
3 | 21 | B3
4 | 33 | B4
